Reference: patent US20220073608A1 (JIANGSU HUAIYU PHARMACEUTICAL, published 2022)
Changes are numbered by the printed parent chain. Numbers in names are those of the source.

Target: T1, hSEMA4D ECD-His (His-tagged human SEMA4D protein extracellular domain, Met22-Arg734) (human, UniProt Q92854 22-734)
T1 construct: Expressed in CHO-S cells, purified on Ni column; also called protein immunogen; immunogen A; not shown: His tag of the pCP vector
T1 sequence: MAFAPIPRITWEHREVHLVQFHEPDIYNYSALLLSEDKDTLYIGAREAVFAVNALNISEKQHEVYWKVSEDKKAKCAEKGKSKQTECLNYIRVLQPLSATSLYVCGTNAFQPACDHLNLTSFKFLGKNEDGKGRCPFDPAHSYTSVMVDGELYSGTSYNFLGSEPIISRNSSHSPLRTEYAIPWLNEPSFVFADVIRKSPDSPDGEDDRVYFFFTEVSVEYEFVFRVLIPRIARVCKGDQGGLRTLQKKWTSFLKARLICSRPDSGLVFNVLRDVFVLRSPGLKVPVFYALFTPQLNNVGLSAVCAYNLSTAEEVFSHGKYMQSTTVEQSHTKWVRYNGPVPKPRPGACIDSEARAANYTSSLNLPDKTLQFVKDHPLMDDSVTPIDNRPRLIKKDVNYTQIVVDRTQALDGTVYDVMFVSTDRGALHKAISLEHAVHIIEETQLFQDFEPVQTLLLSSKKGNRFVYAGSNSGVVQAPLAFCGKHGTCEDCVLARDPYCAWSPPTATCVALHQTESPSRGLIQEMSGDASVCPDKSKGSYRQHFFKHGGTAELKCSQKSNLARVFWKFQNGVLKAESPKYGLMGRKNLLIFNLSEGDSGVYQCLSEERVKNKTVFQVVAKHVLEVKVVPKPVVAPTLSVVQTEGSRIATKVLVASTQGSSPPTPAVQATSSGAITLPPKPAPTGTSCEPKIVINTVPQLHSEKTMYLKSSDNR
Test: SPR (Biacore), antibody captured on anti-human Fc CM5 chip, hSEMA4D ECD-His 100 nM as analyte, 1:1 fit
Protocol: The anti-human Fc IgG (purchased from Geneway) was coupled and immobilized on the surface of the CM5 chip (purchased from GE) by the amino coupling method, and FC1 was used as the reference channel. The coupling and immobilization process was as follows: the freshly prepared mixture of 50 mM N-hydroxysuccinimide (NHS) and 200 mM 1-(3-dimethylaminopropyl)-3-ethylcarbodiimide hydrochloride (EDC) with a molar ratio of […] was used to activate the chip. Then 10-50 μg/mL anti-human Fc IgG diluted in 10 mM sodium acetate buffer (pH 5.0) was injected. The remaining activated sites were blocked with 1M ethanolamine. Then, buffer containing HBS-EP was used to dilute the 2D5-b1-3D9 antibody prepared to 5 ug/ml and the antibodies were captured on the chip at a flow rate of 10 ul/min to obtain a response value of about 100-300RU. Then, the purified hSEMA4D ECD-His was diluted to 100 nM and let flow across the chip surface at a flow rate of 30 μL/min. At the end of each cycle, the chip surface was regenerated with 10 mM Glycine at pH 1.5. The kinetic rate constant needed to be subtracted from the blank control, and the data was fitted with the global fit analysis method 1:1 combined with the model (see the Biacore operation manual for operation). The dissociation equilibrium rate constant (KD) was calculated according to the following formula: KD=kd/ka, wherein Kd is the dissociation constant and Ka is the binding constant.

B1: 2D5-b1 (antibody, V domains shown)
VH: QVTLRESGPALVKPTQTLTLTCTFSGFSLTTTGVAVTWIRQPPGKALEWLALIDWDDDKYYSTSLKTRLTISKDTSKNQVVLTMTNMDPVDTATYYCARIASGDSGGYFADWGQGTLVTVSS
VL: SYELTQPPSVSVSPGQTASITCSGDKLDDKYVYWYQQKPGQSPVLVIYRDNKRPSGIPERFSGSNSGNTATLTISGTQAMDEADYYCQAWESSSDQYVFGTGTKVTVL
notes: Framework back-mutated variant of 2D5; the parent 2D5 was human IgG4 (S228P)/lambda; captured by anti-human Fc in the SPR assay
- Kd: 2.01 nM
- koff: 0.00103 s⁻¹
- kon: 511000 M⁻¹ s⁻¹

B2: 2D5-b1-3D9 (antibody, human IgG4, V domains shown)
VH: B1 VH
VL: B1 VL with R49M, P54K
notes: also called 2D5-b1-3D9 antibody
- Kd: 0.184 nM
- koff: 0.000107 s⁻¹
- kon: 583000 M⁻¹ s⁻¹
